The results in this text go back to publication PMC8259413.

The data set addresses DNA polymerase beta (Pol β) (rat, UniProt P06766 1-335). Kind of data set: NMR chemical shift titration.

B1: 20-mer single-nucleotide gapped DNA (templating G) (dsDNA)
DNA 1: CGACCGACGGCGCATCAGCC
DNA 2: GGCTGATGCGC
DNA 3: GTCGGTCG
modifications: 5'-phosphate on downstream strand
In the case of B1, the binding result is recorded as “binds”.
